Measurements as given in patent US6949349.
Positions of bridges follow the written chain, without caps; N, C: chain ends. Non-standard residues stand in square brackets, D forms with d. No end group written: not given here. Aib = CC(C)(N)C(=O)O

Legend:
IGFBP-1 [1] = target: T1, IGFBP-1 (human, UniProt P08833 26-259); experiment: biotinylated-IGFBP-1 ELISA: peptide inhibits IGFBP-1 binding to IGF-I; ratio to bp1-01 (wt)
T1 construct: Biotinylated in the ELISA assays; also called rhIGFBP-1
T1 sequence (looked up): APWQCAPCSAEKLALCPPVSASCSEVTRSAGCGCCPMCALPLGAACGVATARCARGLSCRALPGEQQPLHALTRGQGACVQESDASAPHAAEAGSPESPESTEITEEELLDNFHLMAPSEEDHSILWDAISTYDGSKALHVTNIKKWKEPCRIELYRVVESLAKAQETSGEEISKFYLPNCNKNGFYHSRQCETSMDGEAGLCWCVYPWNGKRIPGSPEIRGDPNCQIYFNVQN

IGFBP-3 [2] = target: T2, IGFBP-3 (human, UniProt P17936 28-291); experiment: BIAcore competition: peptide inhibits IGFBP-3 binding to IGF-I; ratio to bp3-01-ox
T2 construct: also called rhIGFBP-3
T2 sequence (P17936 28-291 limits assumed): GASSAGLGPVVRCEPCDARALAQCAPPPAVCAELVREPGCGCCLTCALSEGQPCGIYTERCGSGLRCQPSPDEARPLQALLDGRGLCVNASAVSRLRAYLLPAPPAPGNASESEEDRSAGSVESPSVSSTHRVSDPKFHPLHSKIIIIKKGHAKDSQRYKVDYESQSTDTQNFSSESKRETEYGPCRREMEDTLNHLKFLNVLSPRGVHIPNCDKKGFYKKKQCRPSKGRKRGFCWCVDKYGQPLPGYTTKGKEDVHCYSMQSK

IGFBP-3 [3] = target: T2, IGFBP-3; experiment: BIAcore competition: peptide inhibits IGFBP-3 binding to immobilized IGF-I
IGFBP-1 [4] = target: T1, IGFBP-1; experiment: ELISA plate assay: peptide inhibits IGFBP-1 binding to IGF-I; ratio to bp1-01 (wt)
IGFBP-1 [5] = target: T1, IGFBP-1; experiment: BIAcore competition: peptide inhibits IGFBP-1 binding to IGF-I; ratio to bp1-01 (wt)
IGFBP-1 [6] = target: T1, IGFBP-1; experiment: BIAcore competition: peptide inhibits IGFBP-1 binding to IGF-II; ratio to bp1-01 (wt)
[7] = target: T3, recombinant human IGFBP-3 (human, UniProt P17936 28-291); experiment: phage ELISA on IGFBP-3 plate, 50-fold phage dilution, with/without 100 nM IGF-I as competitor (FIG. 29)
T3 construct: also called rhIGFBP-3
T3 sequence (P17936 28-291 limits assumed): as above
Protocol: The plates were then washed ten times, as above, and a solution of rabbit anti-phage antibody mixed with a goat-anti-rabbit conjugate of horse radish peroxidase was added. After an incubation of 1 hour at room temperature, the plates were developed with a chromogenic substrate, o-phenylenediamine (Sigma). The reaction was stopped with addition of ½ volume of 2.5 M H_2SO_4. Optical density at 490 nm was measured on a spectrophotometric plate reader.
In each case, the phagemid clone was grown from a single colony overnight at 37° C. in a culture volume of 5 ml. The phage particles were precipitated and resuspended in 0.5 ml of PBS buffer.

B1: bp1-01 L9aib (peptide)
peptide: CRAGPLQW[Aib]CEKYFG
modifications: disulfide 1-10
notes: Non-natural variant of bp1-01; X stands for aib
IC50 (mut)/IC50 (wt) (IGFBP-1 [1]): 400 ratio

B2: bp1-01 R2a (peptide)
peptide: C[dA]AGPLQWLCEKYFG
modifications: disulfide 1-10
notes: Non-natural variant of bp1-01 (a = D-alanine)
IC50 (mut)/IC50 (wt) (IGFBP-1 [1]): 50 ratio

B3: bp1-01 Q7 aib (peptide)
peptide: CRAGPL[Aib]WLCEKYFG
modifications: disulfide 1-10
notes: as for B1
IC50 (mut)/IC50 (wt) (IGFBP-1 [1]): 1.6 ratio

B4: bp1-01 G4a (peptide)
peptide: CRA[dA]PLQWLCEKYFG
modifications: disulfide 1-10
notes: as for B2
IC50 (mut)/IC50 (wt) (IGFBP-1 [1]): 0.6 ratio

B5: bp1-01 F14aib (peptide)
peptide: CRAGPLQWLCEKY[Aib]G
modifications: disulfide 1-10
notes: as for B1
IC50 (mut)/IC50 (wt) (IGFBP-1 [1]): 3 ratio

SEEVCWPVAEWYLCN-NH2 (disulfide 5-14 (inferred)) [bp3-39]
IC50 (mut)/IC50 (wt) (IGFBP-3 [2]): 0.33 ratio

Ac-SEEVCWPVAEWYLCN-NH2 (disulfide 5-14 (inferred)) [bp3-40]
IC50 (mut)/IC50 (wt) (IGFBP-3 [2]): 0.33 ratio

GPETCWPVAEWYLCN (bp3-01-ox variant) [bp3-41]
IC50 (IGFBP-3 [3]): 4 µM | IC50 (mut)/IC50 (wt) (IGFBP-3 [2]): 2 ratio

CAAGPLQWLCEKYF (g8 bp1-01 selectant) [bp1-15]
IC50 (mut)/IC50 (wt) (IGFBP-1 [4]): 0.68 ratio

CRAGPLQWLCEKFF (g8 bp1-01 selectant) [bp68]
IC50 (mut)/IC50 (wt) (IGFBP-1 [4]): 0.39 ratio

CRAGPLQWLCERYF (g8 bp1-01 selectant) [bp67]
IC50 (mut)/IC50 (wt) (IGFBP-1 [4]): 0.34 ratio

CRAGPLQWLCERFF (g8 bp1-01 selectant) [bp1028]
IC50 (mut)/IC50 (wt) (IGFBP-1 [4]): 4.6 ratio

CREGPLQWLCERFF (g8 bp1-01 selectant) [bp1029]
IC50 (mut)/IC50 (wt) (IGFBP-1 [4]): 1.7 ratio

B6: bp1-01 L6a (peptide)
peptide: CRAGP[dA]QWLCEKYFG
modifications: disulfide 1-10
notes: as for B2
IC50 (mut)/IC50 (wt) (IGFBP-1 [1]): 400 ratio

CKAGPLLWLCERFF (g8 bp1-01 selectant) [bp1027]
IC50 (mut)/IC50 (wt) (IGFBP-1 [4]): 8.8 ratio

CKEGPLLWLCERFF (g8 bp1-01 selectant) [bp1030]
IC50 (mut)/IC50 (wt) (IGFBP-1 [4]): 4.3 ratio

B7: bp1-01 W8aib (peptide)
peptide: CRAGPLQ[Aib]LCEKYFG
modifications: disulfide 1-10
notes: as for B1
IC50 (mut)/IC50 (wt) (IGFBP-1 [1]): 24 ratio

CRAGPLQWLCAKYFG (Ala-scan variant of bp1-01) [bp1-01 E11A]
IC50 (mut)/IC50 (wt) (IGFBP-1 [5]): 2.9 ratio | IC50 (mut)/IC50 (wt) (IGFBP-1 [6]): 2.4 ratio

CRAGPLQWACEKYFG (Ala-scan variant of bp1-01) [bp1-01 L9A]
IC50 (mut)/IC50 (wt) (IGFBP-1 [5]): 33.2 ratio | IC50 (mut)/IC50 (wt) (IGFBP-1 [6]): 29.7 ratio

CRAGPLQWLCEKAFG (Ala-scan variant of bp1-01) [bp1-01 Y13A]
IC50 (mut)/IC50 (wt) (IGFBP-1 [5]): 12.5 ratio | IC50 (mut)/IC50 (wt) (IGFBP-1 [6]): 14.6 ratio

B8: bp1-01 R2A (peptide)
peptide: CAAGPLQWLCEKYFG
modifications: disulfide 1-10 (inferred)
notes: Ala-scan variant of bp1-01; termini and disulfide not restated
IC50 (mut)/IC50 (wt) (IGFBP-1 [5]): 0.9 ratio | IC50 (mut)/IC50 (wt) (IGFBP-1 [6]): 0.9 ratio

CRAGPLQWLCEKYAG (Ala-scan variant of bp1-01) [bp1-01 F14A]
IC50 (mut)/IC50 (wt) (IGFBP-1 [5]): 6.2 ratio | IC50 (mut)/IC50 (wt) (IGFBP-1 [6]): 5.8 ratio

CRAGPLAWLCEKYFG (Ala-scan variant of bp1-01) [bp1-01 Q7A]
IC50 (mut)/IC50 (wt) (IGFBP-1 [5]): 0.7 ratio | IC50 (mut)/IC50 (wt) (IGFBP-1 [6]): 0.6 ratio

CRAGPAQWLCEKYFG (Ala-scan variant of bp1-01) [bp1-01 L6A]
IC50 (mut)/IC50 (wt) (IGFBP-1 [5]): 30.3 ratio | IC50 (mut)/IC50 (wt) (IGFBP-1 [6]): 34.7 ratio

CRAGPLQWLCEAYFG (Ala-scan variant of bp1-01) [bp1-01 K12A]
IC50 (mut)/IC50 (wt) (IGFBP-1 [5]): 7.9 ratio | IC50 (mut)/IC50 (wt) (IGFBP-1 [6]): 5.3 ratio

CRAGPLQALCEKYFG (Ala-scan variant of bp1-01) [bp1-01 W8A]
IC50 (mut)/IC50 (wt) (IGFBP-1 [5]): 7.4 ratio | IC50 (mut)/IC50 (wt) (IGFBP-1 [6]): 6.4 ratio

CWPVAEWYLCN [bp3-25 (SEQ ID NO:106)]
IC50 (IGFBP-3 [3]): 46 µM | IC50 (mut)/IC50 (wt) (IGFBP-3 [2]): 23 ratio

SEEVCWPVAEWYLCN (also called BP15) [bp3-15]
IC50 (IGFBP-3 [3]): 0.72 µM | IC50 (mut)/IC50 (wt) (IGFBP-3 [2]): 0.36 ratio

EEVCWPVAEWYLCN (bp3-01-ox variant) [bp3-28]
IC50 (IGFBP-3 [3]): 5.4 µM | IC50 (mut)/IC50 (wt) (IGFBP-3 [2]): 2.7 ratio

ASEEVCWPVAEWYLCN (bp3-01-ox variant) [bp3-30]
IC50 (IGFBP-3 [3]): 5.6 µM | IC50 (mut)/IC50 (wt) (IGFBP-3 [2]): 2.8 ratio

WPVAEWYLCN [bp3-24 (SEQ ID NO:107)]
IC50 (mut)/IC50 (wt) (IGFBP-3 [2]): > 500 ratio

CR[dA]GPLQWLCEKYFG (disulfide 1-10 (inferred)) [bp1-01 A3a]
IC50 (mut)/IC50 (wt) (IGFBP-1 [1]): 34 ratio

B9: peptide-phage clone 4C3.2 (g8 display) (peptide, not shown: large carriers)
chain: ELDGWVCIKVGEQNLCYLAE
modifications: not fully specified (C-terminus, bridges); cysteine pairing not given here; also: polyvalent display on phage particle
notes: Tested as a whole phage particle with polyvalent display
percent inhibition of phage binding by IGF-I [7]: > 40%

B10: bp1-02 (peptide)
peptide: SEVGCRAGPLQWLCEKYFG-NH2
modifications: disulfide 5-14; N-terminus assumed
SMILES: CC(C)C[C@@H]1NC(=O)[C@H](Cc2c[nH]c3ccccc23)NC(=O)[C@H](CCC(N)=O)NC(=O)[C@H](CC(C)C)NC(=O)[C@@H]2CCCN2C(=O)CNC(=O)[C@H](C)NC(=O)[C@H](CCCNC(=N)N)NC(=O)[C@@H](NC(=O)CNC(=O)[C@@H](NC(=O)[C@H](CCC(=O)O)NC(=O)[C@@H](N)CO)C(C)C)CSSC[C@@H](C(=O)N[C@@H](CCC(=O)O)C(=O)N[C@@H](CCCCN)C(=O)N[C@@H](Cc2ccc(O)cc2)C(=O)N[C@@H](Cc2ccccc2)C(=O)NCC(N)=O)NC1=O
notes: 19-mer variant of bp1-01
IC50 (mut)/IC50 (wt) (IGFBP-1 [4]): 0.37 ratio

ASEEVCWPVAEWYLCNMWGR [4d3.3]
IC50 (IGFBP-3 [3]): 5.6 µM | IC50 (mut)/IC50 (wt) (IGFBP-3 [2]): 2.8 ratio

B11: peptide-phage clone 4D3.8 (g8 display) (peptide, not shown: large carriers)
chain: SEEVCWPVAEWYLCNILGP
modifications: not fully specified (C-terminus, bridges); cysteine pairing not given here; also: polyvalent display on phage particle
notes: as for B9
percent inhibition of phage binding by IGF-I [7]: > 40%

EVCWPVAEWYLCN (bp3-01-ox variant) [bp3-27]
IC50 (IGFBP-3 [3]): 2.8 µM | IC50 (mut)/IC50 (wt) (IGFBP-3 [2]): 1.4 ratio

B12: bp1-01 K12aib (peptide)
peptide: CRAGPLQWLCE[Aib]YFG
modifications: disulfide 1-10
notes: as for B1
IC50 (mut)/IC50 (wt) (IGFBP-1 [1]): 2 ratio

B13: bp1-01 Y13aib (peptide)
peptide: CRAGPLQWLCEK[Aib]FG
modifications: disulfide 1-10
notes: as for B1
IC50 (mut)/IC50 (wt) (IGFBP-1 [1]): 7.1 ratio

B14: bp1-01 E11aib (peptide)
peptide: CRAGPLQWLC[Aib]KYFG
modifications: disulfide 1-10
notes: as for B1
IC50 (mut)/IC50 (wt) (IGFBP-1 [1]): 1 ratio
